# Assays:
# [1] = biological target: human FGFR4 expressed at the cell surface (human, UniProt P22455 22-802); assay: cell-based or functional assay
# [2] = biological target: T1, human FGFR4 (soluble, Part B: SPR and FGFR4 ELISA) (human, UniProt P22455 22-369); assay: surface plasmon resonance, compared with chLD1
# T1 construct: Injected over immobilized IgG in SPR (0.48-1000 nM) and immobilized in the FGFR4 ELISA
# T1 sequence: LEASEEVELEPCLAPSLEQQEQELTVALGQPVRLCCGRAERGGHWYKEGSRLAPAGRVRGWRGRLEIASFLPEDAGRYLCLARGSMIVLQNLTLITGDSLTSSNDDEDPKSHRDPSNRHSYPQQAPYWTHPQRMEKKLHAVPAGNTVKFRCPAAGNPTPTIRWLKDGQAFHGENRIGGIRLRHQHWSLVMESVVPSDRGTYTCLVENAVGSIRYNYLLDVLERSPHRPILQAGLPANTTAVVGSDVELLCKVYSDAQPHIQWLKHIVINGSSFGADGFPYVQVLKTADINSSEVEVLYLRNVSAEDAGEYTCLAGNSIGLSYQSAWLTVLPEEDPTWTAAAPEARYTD
binder,measurement,setting,value
"chimeric LD1 (chLD1) (antibody, V domains shown) VH: EVQLQQPGAVLVRPGTSVKLSCKASGYTFTNHWMNWVKQRPGQGLEWIGMIHPSDSETTLDQKFKDKATLTVDKSSSTAYMQLNRPTSEDSAVYYCTRGDISLFDYWGQGTTVTVSS VL: DIQMTQTTSSLSASLGDRVTITCRTSQDISNFLNWYQQKPDGTFKILISYTSRLHSGVPSRFSGSGSGTDYSLTISTLEQEDFATYFCQQGNALPYTFGGGTKLEIE","CYP7α1 expression in HEP3B cells without added FGF19, fold increase",[1],2 fold
same,"CYP7α1 expression in HUH7 cells in the absence of FGF19, fold increase",[1],3.5 fold
same,"CYP7α1 expression in HUH7 cells in the presence of FGF19, fold increase",[1],2.9 fold
"hLD1.vA (antibody, V domains shown) VH: EVQLVESGGGLVQPGGSLRLSCAASGYTFTNHWMNWVRQAPGKGLEWVGMIHPSDSETTLDQKFKDRFTISADTSKNTAYLQMNSLRAEDTAVYYCTRGDISLFDYWGQGTLVTVSS VL: DIQMTQSPSSLSASVGDRVTITCRTSQDISNFLNWYQQKPGKAPKLLIYYTSRLHSGVPSRFSGSGSGTDFTLTISSLQPEDFATYYCQQGNALPYTFGQGTKVEIKR",fold decrease of affinity against chLD1,[2],~5 fold

# Reference: US20160237157A1 (published 2016)
